# Assay results published in article PMC11050321, “L-Asparaginase Conjugates from the Hyperthermophilic Archaea Thermococcus sibiricus with Improved Biocatalytic Properties” (International Journal of Molecular Sciences, 2024).
# Substrate: NC(=O)C[C@H](N)C(=O)O
# Experiment: purified protein
# Type: biochemical, Thermococcus sibiricus
# Details: native unconjugated enzyme, 25 mM borate buffer, pH 8.5 (Table 4; Figure 5 legend says pH 7.5, Methods pH 9.3), 85 °C
protein,measurement,value
"TsA (L-asparaginase from Thermococcus sibiricus) (Thermococcus sibiricus MM 739) (protein, synthetic gene in pET-28a(+), E. coli BL21(DE3), SP-Sepharose purified (no tag mentioned); gene span 996 nt) MKKLLIIGTGGTIASAKTEQGYKSVLKIDEILKLAKIKLENGYKIDSTNIMNIDSTLIHPEDWEIIAKEVFKALDDYDGIIITHGTDTLAYTASMLSFMIKNPNKPIVLTGSMLPITENGSDAPRNIRTAIKFAMEDVAGVFVAFMDKIMLGCRTSKVRTLGLNAFMSINYPDVAYVKGEKILYNIPKEKFQPNGSPELDTKYEPRVVVLRVTPGLGGEIIDAVLDAGYKGIVLEGYGAGGLPYRKSNLLSKIKEITPKIPVIMTTQALYDGVDMRKYEVGRKALETGIIPAKDMTKEATITKLMWALGHTKDVEKIREIMHTNYVNEIKS",Km,6.1 ± 1.3 mM
same,Vmax,470 µmol/min/mg
